Results from US11833164B2, “Methods of treating Fabry disease in patients having a mutation in the GLA gene” (Amicus Therapeutics, Inc., priority 2019, dated 2023).

B1: L324W (protein)
chain: MQLRNPELHLGCALALRFLALVSWDIPGARALDNGLARTPTMGWLHWERFMCNLDCQEEPDSCISEKLFMEMAELMVSEGWKDAGYEYLCIDDCWMAPQRDSEGRLQADPQRFPHGIRQLANYVHSKGLKLGIYADVGNKTCAGFPGSFGYYDIDAQTFADWGVDLLKFDGCYCDSLENLADGYKHMSLALNRTGRSIVYSCEWPLYMWPFQKPNYTEIRQYCNHWRNFADIDDSWKSIKSILDWTSFNQERIVDVAGPGGWNDPDMLVIGNFGLSWNQQVTQMALWAIMAAPLFMSNDLRHISPQAKALLQDKDVIAINQDPWGKQGYQLRQGDNFEVWERPLSGLAWAVAMINRQEIGGPRSYTIAVASLGKGVACNPACFITQLLPVKRKLGFYEWTSRLRSHINPTGTVLLQLENTMQMSLKDLL
B2: G325A (protein)
chain: MQLRNPELHLGCALALRFLALVSWDIPGARALDNGLARTPTMGWLHWERFMCNLDCQEEPDSCISEKLFMEMAELMVSEGWKDAGYEYLCIDDCWMAPQRDSEGRLQADPQRFPHGIRQLANYVHSKGLKLGIYADVGNKTCAGFPGSFGYYDIDAQTFADWGVDLLKFDGCYCDSLENLADGYKHMSLALNRTGRSIVYSCEWPLYMWPFQKPNYTEIRQYCNHWRNFADIDDSWKSIKSILDWTSFNQERIVDVAGPGGWNDPDMLVIGNFGLSWNQQVTQMALWAIMAAPLFMSNDLRHISPQAKALLQDKDVIAINQDPLAKQGYQLRQGDNFEVWERPLSGLAWAVAMINRQEIGGPRSYTIAVASLGKGVACNPACFITQLLPVKRKLGFYEWTSRLRSHINPTGTVLLQLENTMQMSLKDLL
B3: G325C (protein)
chain: MQLRNPELHLGCALALRFLALVSWDIPGARALDNGLARTPTMGWLHWERFMCNLDCQEEPDSCISEKLFMEMAELMVSEGWKDAGYEYLCIDDCWMAPQRDSEGRLQADPQRFPHGIRQLANYVHSKGLKLGIYADVGNKTCAGFPGSFGYYDIDAQTFADWGVDLLKFDGCYCDSLENLADGYKHMSLALNRTGRSIVYSCEWPLYMWPFQKPNYTEIRQYCNHWRNFADIDDSWKSIKSILDWTSFNQERIVDVAGPGGWNDPDMLVIGNFGLSWNQQVTQMALWAIMAAPLFMSNDLRHISPQAKALLQDKDVIAINQDPLCKQGYQLRQGDNFEVWERPLSGLAWAVAMINRQEIGGPRSYTIAVASLGKGVACNPACFITQLLPVKRKLGFYEWTSRLRSHINPTGTVLLQLENTMQMSLKDLL
B4: G325V (protein)
chain: MQLRNPELHLGCALALRFLALVSWDIPGARALDNGLARTPTMGWLHWERFMCNLDCQEEPDSCISEKLFMEMAELMVSEGWKDAGYEYLCIDDCWMAPQRDSEGRLQADPQRFPHGIRQLANYVHSKGLKLGIYADVGNKTCAGFPGSFGYYDIDAQTFADWGVDLLKFDGCYCDSLENLADGYKHMSLALNRTGRSIVYSCEWPLYMWPFQKPNYTEIRQYCNHWRNFADIDDSWKSIKSILDWTSFNQERIVDVAGPGGWNDPDMLVIGNFGLSWNQQVTQMALWAIMAAPLFMSNDLRHISPQAKALLQDKDVIAINQDPLVKQGYQLRQGDNFEVWERPLSGLAWAVAMINRQEIGGPRSYTIAVASLGKGVACNPACFITQLLPVKRKLGFYEWTSRLRSHINPTGTVLLQLENTMQMSLKDLL
B5: K326E (protein)
chain: MQLRNPELHLGCALALRFLALVSWDIPGARALDNGLARTPTMGWLHWERFMCNLDCQEEPDSCISEKLFMEMAELMVSEGWKDAGYEYLCIDDCWMAPQRDSEGRLQADPQRFPHGIRQLANYVHSKGLKLGIYADVGNKTCAGFPGSFGYYDIDAQTFADWGVDLLKFDGCYCDSLENLADGYKHMSLALNRTGRSIVYSCEWPLYMWPFQKPNYTEIRQYCNHWRNFADIDDSWKSIKSILDWTSFNQERIVDVAGPGGWNDPDMLVIGNFGLSWNQQVTQMALWAIMAAPLFMSNDLRHISPQAKALLQDKDVIAINQDPLGEQGYQLRQGDNFEVWERPLSGLAWAVAMINRQEIGGPRSYTIAVASLGKGVACNPACFITQLLPVKRKLGFYEWTSRLRSHINPTGTVLLQLENTMQMSLKDLL
B6: K326M (protein)
chain: MQLRNPELHLGCALALRFLALVSWDIPGARALDNGLARTPTMGWLHWERFMCNLDCQEEPDSCISEKLFMEMAELMVSEGWKDAGYEYLCIDDCWMAPQRDSEGRLQADPQRFPHGIRQLANYVHSKGLKLGIYADVGNKTCAGFPGSFGYYDIDAQTFADWGVDLLKFDGCYCDSLENLADGYKHMSLALNRTGRSIVYSCEWPLYMWPFQKPNYTEIRQYCNHWRNFADIDDSWKSIKSILDWTSFNQERIVDVAGPGGWNDPDMLVIGNFGLSWNQQVTQMALWAIMAAPLFMSNDLRHISPQAKALLQDKDVIAINQDPLGMQGYQLRQGDNFEVWERPLSGLAWAVAMINRQEIGGPRSYTIAVASLGKGVACNPACFITQLLPVKRKLGFYEWTSRLRSHINPTGTVLLQLENTMQMSLKDLL
B7: K326Q (protein)
chain: MQLRNPELHLGCALALRFLALVSWDIPGARALDNGLARTPTMGWLHWERFMCNLDCQEEPDSCISEKLFMEMAELMVSEGWKDAGYEYLCIDDCWMAPQRDSEGRLQADPQRFPHGIRQLANYVHSKGLKLGIYADVGNKTCAGFPGSFGYYDIDAQTFADWGVDLLKFDGCYCDSLENLADGYKHMSLALNRTGRSIVYSCEWPLYMWPFQKPNYTEIRQYCNHWRNFADIDDSWKSIKSILDWTSFNQERIVDVAGPGGWNDPDMLVIGNFGLSWNQQVTQMALWAIMAAPLFMSNDLRHISPQAKALLQDKDVIAINQDPLGQQGYQLRQGDNFEVWERPLSGLAWAVAMINRQEIGGPRSYTIAVASLGKGVACNPACFITQLLPVKRKLGFYEWTSRLRSHINPTGTVLLQLENTMQMSLKDLL
B8: K326R (protein)
chain: MQLRNPELHLGCALALRFLALVSWDIPGARALDNGLARTPTMGWLHWERFMCNLDCQEEPDSCISEKLFMEMAELMVSEGWKDAGYEYLCIDDCWMAPQRDSEGRLQADPQRFPHGIRQLANYVHSKGLKLGIYADVGNKTCAGFPGSFGYYDIDAQTFADWGVDLLKFDGCYCDSLENLADGYKHMSLALNRTGRSIVYSCEWPLYMWPFQKPNYTEIRQYCNHWRNFADIDDSWKSIKSILDWTSFNQERIVDVAGPGGWNDPDMLVIGNFGLSWNQQVTQMALWAIMAAPLFMSNDLRHISPQAKALLQDKDVIAINQDPLGRQGYQLRQGDNFEVWERPLSGLAWAVAMINRQEIGGPRSYTIAVASLGKGVACNPACFITQLLPVKRKLGFYEWTSRLRSHINPTGTVLLQLENTMQMSLKDLL
B9: K326T (protein)
chain: MQLRNPELHLGCALALRFLALVSWDIPGARALDNGLARTPTMGWLHWERFMCNLDCQEEPDSCISEKLFMEMAELMVSEGWKDAGYEYLCIDDCWMAPQRDSEGRLQADPQRFPHGIRQLANYVHSKGLKLGIYADVGNKTCAGFPGSFGYYDIDAQTFADWGVDLLKFDGCYCDSLENLADGYKHMSLALNRTGRSIVYSCEWPLYMWPFQKPNYTEIRQYCNHWRNFADIDDSWKSIKSILDWTSFNQERIVDVAGPGGWNDPDMLVIGNFGLSWNQQVTQMALWAIMAAPLFMSNDLRHISPQAKALLQDKDVIAINQDPLGTQGYQLRQGDNFEVWERPLSGLAWAVAMINRQEIGGPRSYTIAVASLGKGVACNPACFITQLLPVKRKLGFYEWTSRLRSHINPTGTVLLQLENTMQMSLKDLL

Test system: mutant form of α-Gal A expressed in HEK-293 cells
Assay: HEK assay (GLP HEK / Migalastat Amenability Assay): α-Gal A activity in lysates of transiently transfected HEK-293 cells incubated with or without 10 μM migalastat
Type: cell-based, human
Conditions: for Absolute increase (% WT) / Relative increase: 10 μM migalastat versus baseline; for Baseline α-Gal A activity (% WT): absence of migalastat; for Baseline α-Gal A activity (% WT) / 10 μM migalastat α-Gal A activity (% WT): percentage of baseline wild-type α-Gal A activity; for Baseline α-Gal A activity (% WT) / Baseline α-Gal A activity / 10 μM migalastat α-Gal A activity / 10 μM migalastat α-Gal A activity (% WT): mean ± SEM; for Baseline α-Gal A activity / 10 μM migalastat α-Gal A activity: lysates of HEK-293 cells transiently transfected with the mutant form; for Baseline α-Gal A activity: incubated 5 days in absence of migalastat; for 10 μM migalastat α-Gal A activity: incubated 5 days with 10 μM migalastat; for 10 μM migalastat α-Gal A activity (% WT): with 10 μM migalastat, 5 days
Outline: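 Activity reported as 4-MU released (nmol/mg/hr), mean±SEM, from lysates of transiently transfected HEK-293 cells expressing mutant α-Gal A, cultured with or without 10 μM migalastat.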

| Molecule | Absolute increase (% WT) | Relative increase | Baseline α-Gal A activity (% WT) | Baseline α-Gal A activity [nmol/mg/h] | 10 μM migalastat α-Gal A activity [nmol/mg/h] | 10 μM migalastat α-Gal A activity (% WT) |
| --- | --- | --- | --- | --- | --- | --- |
| B1 | 19.8 | 1.3 | 73.5 ± 1.8 | 20623 ± 721 | 25772 ± 1045 | 93.3 ± 4.5 |
| B2 | 34.4 | 1.5 | 64.9 ± 3.8 | 18183 ± 1254 | 27523 ± 1456 | 99.2 ± 5.4 |
| B3 | 34.5 | 1.7 | 51.4 ± 1.7 | 14482 ± 695 | 23873 ± 1021 | 85.9 ± 4 |
| B4 | 17.1 | 9.3 | 2.2 ± 0.2 | 572 ± 30 | 5333 ± 294 | 19.3 ± 1.1 |
| B5 | 25.3 | 1.4 | 55.6 ± 2.6 | 15541 ± 832 | 22340 ± 828 | 80.9 ± 3.9 |
| B6 | 63.2 | 3.7 | 24.4 ± 1.6 | 8482 ± 500 | 31204 ± 1979 | 87.6 ± 3.5 |
| B7 | 26.1 | 1.3 | 78 ± 3 | 22075 ± 1209 | 29168 ± 1869 | 104.1 ± 5.7 |
| B8 | 48.0 | 1.8 | 61.7 ± 3.4 | 17744 ± 923 | 31690 ± 1112 | 109.7 ± 2.9 |
| B9 | 26.4 | 1.4 | 69.6 ± 2.4 | 19442 ± 739 | 26653 ± 877 | 96 ± 3.7 |
